# Data taken from PMC2712087 (PLoS Pathogens, 2009).
# B1: purified recombinant BZLF1 protein (natural protein)
# chain: MMDPNSTSEDVKFTPDPYQVPFVQAFDQATRVYQDLGGPSQAPLPCVLWPVLPEPLPQGQLTAYHVSTAPTGSWFSAPQPAPENAYQAYAAPQLFPVSDITQNQQTNQAGGEAPQPGDNSTVQTAAAVVFACPGANQGQQLADIGVPQPAPVAAPARRTRKPQQPESLEECDSELEIKRYKNRVASRKCRAKFKQLLQHYREVAAAKSSENDRLRLLLKQMCPSLDVDSIIPRTPDVLHEDLLNF
# notes: also called EBV BZLF1 protein; source: Hi-Five cells infected with recombinant baculovirus AcBZLF1, purified (extracted from nuclei with 0.6 M NaCl; purity more than 90%)
# Legend:
# [1] = target: T1, His-p53 wild-type (human, UniProt P04637 1-393); assay: pull-down; details: both partners purified
# T1 construct: also called His-tagged p53; WT p53; source: E. coli, purified (Ni-NTA agarose); not shown: His, N-terminal, kept
# [2] = target: T2, FLAG-p53 wild type, from 293T cells (human, UniProt P04637 1-393); assay: pull-down; details: both partners purified
# T2 construct: also called FLAG-p53 (WT); p53 protein (WT); source: 293T, transfected, with or without ionizing radiation (20 Gy), purified on anti-FLAG antibody resin
binder,measurement,setting,value
B1,binding result,[1],binds
same,binding result,[2],binds
